Laboratory results: paper PMC10200994

Biological target: T1, STAT1 (unphosphorylated, wild-type), fluorophore fusion, P42224
T1 chain: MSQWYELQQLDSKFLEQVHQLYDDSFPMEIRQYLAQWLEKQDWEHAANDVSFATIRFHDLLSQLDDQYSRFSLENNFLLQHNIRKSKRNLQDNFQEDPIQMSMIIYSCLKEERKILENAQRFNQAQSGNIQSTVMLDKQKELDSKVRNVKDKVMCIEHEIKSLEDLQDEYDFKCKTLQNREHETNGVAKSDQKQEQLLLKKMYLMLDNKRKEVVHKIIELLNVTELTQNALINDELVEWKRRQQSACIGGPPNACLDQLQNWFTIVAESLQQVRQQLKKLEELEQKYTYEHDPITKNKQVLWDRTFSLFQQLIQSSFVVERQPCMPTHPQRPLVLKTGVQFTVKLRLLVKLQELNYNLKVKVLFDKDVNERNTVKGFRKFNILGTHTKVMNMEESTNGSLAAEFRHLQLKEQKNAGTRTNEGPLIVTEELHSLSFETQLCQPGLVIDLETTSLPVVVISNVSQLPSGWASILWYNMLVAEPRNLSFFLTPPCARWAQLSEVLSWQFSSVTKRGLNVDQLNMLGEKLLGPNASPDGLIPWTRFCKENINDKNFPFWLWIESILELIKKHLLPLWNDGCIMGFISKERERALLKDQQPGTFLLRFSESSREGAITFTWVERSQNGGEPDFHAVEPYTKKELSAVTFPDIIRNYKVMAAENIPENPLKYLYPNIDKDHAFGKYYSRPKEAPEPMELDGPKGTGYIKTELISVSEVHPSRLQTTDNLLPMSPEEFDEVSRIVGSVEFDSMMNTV
Assay: co-localization assay (relocalisation of a test protein by a compartment-targeted bait, fluorescence microscopy); HeLa cells co-expressing bait (STAT-NES or STAT-NLS, or wild-type STAT2 with its own export activity; green) and test protein without heterologous signal (red); no cytokine; fixed 20 h after transfection; Pearson correlation coefficient rP in cells with equimolar to 4-fold excess of bait
Details: remark: other sources report otherwise

B1: STAT1 (unphosphorylated, wild-type), fluorophore fusion, P42224 1-750 (natural protein)
chain: T1 chain
In the case of B1, the Pearson correlation coefficient rP (co-localization) is reported as > 0.94.
